Target: T1, His-tagged PD-L1 ECD protein (ACROBiosystems) (human, UniProt Q9NZQ7 19-238)
T1 construct: Bought protein; also called PD-L1-His; PD-L1/His; not shown: His tag
Assay: SPR, supernatant IgG captured, PD-L1-His analyte

T1 sequence (Q9NZQ7 19-238): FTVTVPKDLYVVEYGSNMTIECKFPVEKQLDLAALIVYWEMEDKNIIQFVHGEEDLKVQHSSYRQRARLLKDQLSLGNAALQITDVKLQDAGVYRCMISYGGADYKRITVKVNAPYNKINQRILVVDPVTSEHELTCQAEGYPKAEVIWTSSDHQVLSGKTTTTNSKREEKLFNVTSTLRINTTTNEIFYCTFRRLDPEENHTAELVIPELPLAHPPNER

B1: 53C1_VH2-VL1.M1 (antibody, human IgG1, kappa, N297A, V domains shown)
VH: EVQLVQSGAEVKKPGASVKVSCKASGYIFTGYGITWVRQAPGQGLEWIGEIFPRRVNTYYSEKFKGRATLTTDTSTSTAYMELRSLRSDDTAVYFCARDYDPYFALDYWGQGTTVTVSS
VL: DIQMTQSPSSLSASVGDRVTITCRASQDVSTAVDWYQQKPGKAPKLLIYSASYRYTGVPDRFSGSGSGTDFTFTISSLQPEDIATYYCQQHYSIPFTFGQGTKLEIKR
notes: Humanized, hIgG1 effector-less Fc, kappa; see recheck on K24R in the .M1 light chain
Work on B1 yielded a Kd of 1 nM, a koff of 0.00025 s⁻¹ and a kon of 240000 M⁻¹ s⁻¹.

B2: 53C1_VH3.M3-VL1.M1 (antibody, human IgG1, kappa, N297A, V domains shown)
VH: EVQLVQSGAEVKKPGASVKLSCKASGYIFTGYGITWVRQAPGQGLEWIGEIFPRRVQTYYSEKFKGRATLTADTSTSTAYMELRSLRSDDTAVYFCARDYDPYFALDYWGQGTTVTVSS
VL: DIQMTQSPSSLSASVGDRVTITCRASQDVSTAVDWYQQKPGKAPKLLIYSASYRYTGVPDRFSGSGSGTDFTFTISSLQPEDIATYYCQQHYSIPFTFGQGTKLEIKR
notes: Humanized, VH N57Q in the entry; hIgG1 effector-less Fc, kappa; see recheck on K24R in the .M1 light chain
With B2 the Kd was 0.21 nM, the koff was 7.3e-05 s⁻¹ and the kon was 350000 M⁻¹ s⁻¹.

Source: patent US20220135687A1 (NANJING LEGEND BIOTECH, published 2022)
